Values quoted from earlier work, collected in patent publication US8257684B2, “Methods for identifying and targeting autonomic brain regions” (Neurosigma, Inc., priority 2008, dated 2012).
No end group written: not given here.

Molecular target: T1, OX1R (Homo sapiens, UniProt O43613)
T1 sequence (O43613 1-425): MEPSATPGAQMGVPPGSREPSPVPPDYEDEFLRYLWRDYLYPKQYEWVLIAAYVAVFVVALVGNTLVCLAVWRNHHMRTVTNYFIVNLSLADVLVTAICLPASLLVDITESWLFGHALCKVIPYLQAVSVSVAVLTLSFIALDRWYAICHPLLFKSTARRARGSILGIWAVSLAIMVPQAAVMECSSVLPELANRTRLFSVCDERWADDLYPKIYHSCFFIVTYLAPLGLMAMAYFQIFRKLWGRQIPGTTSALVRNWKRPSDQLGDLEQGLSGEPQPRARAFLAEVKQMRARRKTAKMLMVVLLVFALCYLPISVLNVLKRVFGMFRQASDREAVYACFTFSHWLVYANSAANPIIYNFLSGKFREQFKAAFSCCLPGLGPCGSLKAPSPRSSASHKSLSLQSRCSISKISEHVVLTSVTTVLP
Settings: ORXa versus ORXb; Lund et al., Journal of Biological Chemistry

In the case of “Orexin-A (QPLPDCCRQKTCSCRLYELLHGAGNHAAGILTL; not fully specified (residue 1, C-terminus, bridges); cysteine pairing not given here; UniProt O43612 34-66, looked up) [ORXa, ORX molecule produced in the LHA; agonist of OX1R]”, the “higher affinity of OX1R for ORXa than for ORXb” value is given as “approximately 10 fold”.
